Measurements from patent publication US20070148774A1.

Assays:
[1] = molecular target: bovine thyroglobulin (bovine) (UniProt P01267); test: phage ELISA, 200 ug/ml thyroglobulin coated
[2] = molecular target: fd h-PDGFB-R phage (extracellular domain of the human receptor for PDGF isoform BB displayed on fd phage) (human; bacteriophage fd) (UniProt P09619); test: displacement of 125I-PDGF-BB from receptor phage, immunoprecipitation
Chain of fd h-PDGFB-R phage (extracellular domain of the human receptor for PDGF isoform BB displayed on fd phage) (human; bacteriophage fd) (P09619 33-531, form in doubt): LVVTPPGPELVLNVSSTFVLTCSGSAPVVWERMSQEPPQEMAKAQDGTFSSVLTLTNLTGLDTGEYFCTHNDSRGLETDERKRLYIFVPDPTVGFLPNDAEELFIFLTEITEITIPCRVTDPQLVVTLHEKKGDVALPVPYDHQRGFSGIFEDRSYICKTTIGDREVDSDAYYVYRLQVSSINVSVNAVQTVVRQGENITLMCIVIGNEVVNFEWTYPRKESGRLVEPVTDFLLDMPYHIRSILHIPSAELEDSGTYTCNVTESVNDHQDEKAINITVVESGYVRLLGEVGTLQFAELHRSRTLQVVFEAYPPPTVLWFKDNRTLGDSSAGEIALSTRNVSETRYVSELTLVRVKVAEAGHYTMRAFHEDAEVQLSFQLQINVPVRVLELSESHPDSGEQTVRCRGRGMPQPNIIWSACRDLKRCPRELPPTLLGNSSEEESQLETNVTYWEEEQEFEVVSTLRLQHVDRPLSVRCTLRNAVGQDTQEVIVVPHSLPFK

Chain of bovine thyroglobulin (bovine) (P01267 20-2769 limits assumed): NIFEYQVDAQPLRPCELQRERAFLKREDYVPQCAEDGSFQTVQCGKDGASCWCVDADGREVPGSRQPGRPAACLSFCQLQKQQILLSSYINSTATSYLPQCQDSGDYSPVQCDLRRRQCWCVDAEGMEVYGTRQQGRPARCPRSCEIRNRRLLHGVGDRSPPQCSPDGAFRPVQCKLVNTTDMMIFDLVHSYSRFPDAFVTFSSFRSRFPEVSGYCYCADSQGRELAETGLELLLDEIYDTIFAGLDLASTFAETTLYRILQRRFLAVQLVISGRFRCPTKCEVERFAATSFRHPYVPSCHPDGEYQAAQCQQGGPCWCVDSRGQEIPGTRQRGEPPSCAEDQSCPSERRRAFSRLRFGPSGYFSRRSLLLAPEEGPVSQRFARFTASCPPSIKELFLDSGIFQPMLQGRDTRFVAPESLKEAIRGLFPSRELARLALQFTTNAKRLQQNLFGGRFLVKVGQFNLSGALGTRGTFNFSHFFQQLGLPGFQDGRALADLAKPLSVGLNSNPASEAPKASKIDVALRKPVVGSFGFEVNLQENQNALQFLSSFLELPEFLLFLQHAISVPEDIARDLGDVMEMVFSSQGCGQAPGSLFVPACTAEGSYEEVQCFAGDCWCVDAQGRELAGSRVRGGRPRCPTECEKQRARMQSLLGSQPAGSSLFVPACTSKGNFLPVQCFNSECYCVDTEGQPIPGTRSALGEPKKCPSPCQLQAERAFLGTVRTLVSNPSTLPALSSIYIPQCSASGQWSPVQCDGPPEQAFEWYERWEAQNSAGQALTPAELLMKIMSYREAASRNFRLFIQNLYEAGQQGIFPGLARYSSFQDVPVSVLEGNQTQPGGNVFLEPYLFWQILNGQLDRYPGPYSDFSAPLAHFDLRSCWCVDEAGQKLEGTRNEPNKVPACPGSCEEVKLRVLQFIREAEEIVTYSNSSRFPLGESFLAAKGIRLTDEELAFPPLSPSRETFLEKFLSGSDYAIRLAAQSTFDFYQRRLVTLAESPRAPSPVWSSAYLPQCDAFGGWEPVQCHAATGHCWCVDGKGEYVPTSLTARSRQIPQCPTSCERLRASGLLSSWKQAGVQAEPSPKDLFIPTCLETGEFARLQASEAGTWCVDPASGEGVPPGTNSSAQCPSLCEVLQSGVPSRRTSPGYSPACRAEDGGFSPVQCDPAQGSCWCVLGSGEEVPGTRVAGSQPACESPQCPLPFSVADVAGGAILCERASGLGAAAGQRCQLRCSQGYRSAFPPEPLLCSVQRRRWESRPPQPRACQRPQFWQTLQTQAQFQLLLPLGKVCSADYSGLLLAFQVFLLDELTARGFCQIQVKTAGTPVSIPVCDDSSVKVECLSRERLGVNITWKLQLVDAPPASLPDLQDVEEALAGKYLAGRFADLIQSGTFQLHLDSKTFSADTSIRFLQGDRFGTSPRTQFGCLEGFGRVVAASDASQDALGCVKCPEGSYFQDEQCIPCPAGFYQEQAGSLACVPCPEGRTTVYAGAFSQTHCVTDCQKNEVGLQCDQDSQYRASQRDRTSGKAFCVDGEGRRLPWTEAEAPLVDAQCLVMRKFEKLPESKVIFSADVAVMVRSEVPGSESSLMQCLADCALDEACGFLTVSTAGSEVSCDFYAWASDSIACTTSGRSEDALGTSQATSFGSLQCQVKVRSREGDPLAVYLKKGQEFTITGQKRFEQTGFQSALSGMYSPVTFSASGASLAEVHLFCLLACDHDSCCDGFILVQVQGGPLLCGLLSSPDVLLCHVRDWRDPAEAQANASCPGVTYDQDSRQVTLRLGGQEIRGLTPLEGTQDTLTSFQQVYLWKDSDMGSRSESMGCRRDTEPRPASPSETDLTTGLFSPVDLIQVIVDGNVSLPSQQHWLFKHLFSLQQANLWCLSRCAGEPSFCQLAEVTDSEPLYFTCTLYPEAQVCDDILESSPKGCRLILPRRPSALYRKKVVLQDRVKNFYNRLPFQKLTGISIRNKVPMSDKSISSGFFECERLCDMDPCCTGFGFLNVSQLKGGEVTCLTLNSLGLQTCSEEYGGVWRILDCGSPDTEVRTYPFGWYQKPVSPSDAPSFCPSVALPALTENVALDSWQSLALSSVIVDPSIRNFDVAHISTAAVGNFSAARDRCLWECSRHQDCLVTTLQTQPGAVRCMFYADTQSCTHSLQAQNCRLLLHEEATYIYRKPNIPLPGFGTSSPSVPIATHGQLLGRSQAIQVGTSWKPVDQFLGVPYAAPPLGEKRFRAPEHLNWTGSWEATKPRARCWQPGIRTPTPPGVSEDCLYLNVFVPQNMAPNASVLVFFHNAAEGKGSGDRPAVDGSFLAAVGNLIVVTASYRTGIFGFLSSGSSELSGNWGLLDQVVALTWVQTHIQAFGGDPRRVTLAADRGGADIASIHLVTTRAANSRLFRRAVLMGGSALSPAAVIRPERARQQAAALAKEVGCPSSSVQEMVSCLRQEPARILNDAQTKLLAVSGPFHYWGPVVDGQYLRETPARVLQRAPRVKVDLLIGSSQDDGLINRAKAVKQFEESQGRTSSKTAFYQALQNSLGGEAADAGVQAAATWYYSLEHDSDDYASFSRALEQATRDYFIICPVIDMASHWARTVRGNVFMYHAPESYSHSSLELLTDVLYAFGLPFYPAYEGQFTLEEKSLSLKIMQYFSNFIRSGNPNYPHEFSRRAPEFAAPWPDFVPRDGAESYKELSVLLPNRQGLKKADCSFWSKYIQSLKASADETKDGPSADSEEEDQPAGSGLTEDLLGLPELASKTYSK

Row | Substance | O.D. in ELISA [1] [O.D.] | concentration at which binding of 125I-PDGF-BB was reduced to the control level [2] [nM]
1 | pCAT-3 non-recombinant vector phagemid particles (from UniProt P03661 19-424) | 0.07 | 
2 | unlabelled PDGF-BB (from UniProt P01127 82-190; P01127 82-190) (ligand) |  | 50
